{"source": "paper PMC6601556", "assay_in_all_cases": "SPR", "key": {"[1]": {"target": "337_1_C08 variant VH K5T8 / VL 9"}, "[2]": {"target": "337_1_C08 variant VH H5E2 / VL 23"}, "[3]": {"target": "337_1_C08 variant VH K5T8 / VL 6"}, "[4]": {"target": "337_1_C08 variant VH H5E2 / VL 2"}, "[5]": {"target": "337_1_C08 variant VH K5E3 / VL 61"}}}
{"substance": "Monomeric human PD-1 rCD4 antigen (from UniProt Q15116 25-288) (receptor)", "values": [{"measurement": "Kd", "setting": "[1]", "result": 2.9, "unit": "nM"}, {"measurement": "Kd", "setting": "[2]", "result": 54, "unit": "nM"}, {"measurement": "Kd", "setting": "[3]", "result": 9, "unit": "nM"}, {"measurement": "Kd", "setting": "[4]", "result": 30, "unit": "nM"}, {"measurement": "Kd", "setting": "[5]", "result": 4.8, "unit": "nM"}]}
